Source: paper PMC10996005 (2024)
*1 amine or outer side, *2 acyl side, *3 side chain or, on linkers, in order; H or OH if unused. [ ]: non-standard residue; d: D form. Phe(4-OMe) = COc1ccc(C[C@H](N[*:1])C(=O)[*:2])cc1; Phe(4-I) = N[C@@H](Cc1ccc(I)cc1)C(=O)O; 1Nal = N[C@@H](Cc1cccc2ccccc12)C(=O)O; hPhe = N[C@@H](CCc1ccccc1)C(=O)O; 4Pal = N[C@@H](Cc1ccncc1)C(=O)O; Phg = N[C@H](C(=O)O)c1ccccc1

B1: cyclo-CRLII(4-Pal) (peptide)
chain: cyclo(CRLII[4Pal])
SMILES: CC[C@H](C)[C@@H]1NC(=O)[C@H](CC(C)C)NC(=O)[C@H](CCCNC(=N)N)NC(=O)[C@H](CS)NC(=O)[C@H](Cc2ccncc2)NC(=O)[C@H]([C@@H](C)CC)NC1=O
B2: cyclo-CRLII(4-iodo)F (peptide)
chain: cyclo(CRLII[Phe(4-I)])
SMILES: CC[C@H](C)[C@@H]1NC(=O)[C@H](CC(C)C)NC(=O)[C@H](CCCNC(=N)N)NC(=O)[C@H](CS)NC(=O)[C@H](Cc2ccc(I)cc2)NC(=O)[C@H]([C@@H](C)CC)NC1=O
B3: cyclo-CRLII(Phg) (peptide)
chain: cyclo(CRLII[Phg])
SMILES: CC[C@H](C)[C@@H]1NC(=O)[C@H](CC(C)C)NC(=O)[C@H](CCCNC(=N)N)NC(=O)[C@H](CS)NC(=O)[C@H](c2ccccc2)NC(=O)[C@H]([C@@H](C)CC)NC1=O
B4: cyclo-CRLII(1-Nal) (peptide)
chain: cyclo(CRLII[1Nal])
SMILES: CC[C@H](C)[C@@H]1NC(=O)[C@H](CC(C)C)NC(=O)[C@H](CCCNC(=N)N)NC(=O)[C@H](CS)NC(=O)[C@H](Cc2cccc3ccccc23)NC(=O)[C@H]([C@@H](C)CC)NC1=O
B5: cyclo-CRLII(D-F) (peptide)
chain: cyclo(CRLII[dF])
SMILES: CC[C@H](C)[C@@H]1NC(=O)[C@H](CC(C)C)NC(=O)[C@H](CCCNC(=N)N)NC(=O)[C@H](CS)NC(=O)[C@@H](Cc2ccccc2)NC(=O)[C@H]([C@@H](C)CC)NC1=O
B6: cyclo-CRLII(hF) (peptide)
chain: cyclo(CRLII[hPhe])
SMILES: CC[C@H](C)[C@@H]1NC(=O)[C@H](CC(C)C)NC(=O)[C@H](CCCNC(=N)N)NC(=O)[C@H](CS)NC(=O)[C@H](CCc2ccccc2)NC(=O)[C@H]([C@@H](C)CC)NC1=O
B7: cyclo-CRLII(4-iodo)F (peptide)
chain: cyclo(CRLII[Phe(4-I)])
SMILES: CC[C@H](C)[C@@H]1NC(=O)[C@H](CC(C)C)NC(=O)[C@H](CCCNC(=N)N)NC(=O)[C@H](CS)NC(=O)[C@H](Cc2ccc(I)cc2)NC(=O)[C@H]([C@@H](C)CC)NC1=O

The binders below were run against T1, HIF-1α PAS-B (Homo sapiens, UniProt Q16665) (assay: FP).
T1 sequence (Q16665 238-349): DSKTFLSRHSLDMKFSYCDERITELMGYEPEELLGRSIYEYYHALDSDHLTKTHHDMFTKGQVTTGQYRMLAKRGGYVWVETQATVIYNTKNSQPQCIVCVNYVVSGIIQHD
cyclo(CRLIIF) (also: Cy5-labeled HIF-1α) showed a Kd of 4.6 µM.

These binders were tested against T1, HIF-1α PAS-B (assay: MST).
Binder CRLLIF (head-to-tail cyclic peptide) [cyclo-CRLLIF] has a Kd of 14.5 µM.
Work on B1 yielded a Kd of 39.6 µM.
Binder CKLIIF (head-to-tail cyclic peptide) [cyclo-CKLIIF] has a Kd of 2.6 µM.
CKLLIF (head-to-tail cyclic peptide) [cyclo-CKLLIF] was tested, and the Kd was 12 µM.
Binder B2 has a Kd of 0.821 µM.
B3 was tested, and the Kd was 5.8 µM.
CRVIIF (head-to-tail cyclic peptide) [cyclo-CRVIIF] showed a Kd of 65 µM.
For cyclo(CRLII[Phe(4-Bz)]) [cyclo-CRLII(4-Bz)F], the Kd was 1.6 µM.
B4 was tested, and the Kd was 1.7 µM.
With CRLIIF (head-to-tail cyclic peptide) the Kd was 3.8 µM.
Binder B5 has a Kd of 6.2 µM.
Work on cyclo(CRLII[Phe(4-OMe)]) [cyclo-CRLII(4-OMe)F] yielded a Kd of 11.2 µM.
Binder B6 has a Kd of 1.2 µM.

These binders were tested against HIF-2α PAS-B (Homo sapiens, UniProt Q99814) (assay: MST).
Target sequence in this assay (Q99814 240-350): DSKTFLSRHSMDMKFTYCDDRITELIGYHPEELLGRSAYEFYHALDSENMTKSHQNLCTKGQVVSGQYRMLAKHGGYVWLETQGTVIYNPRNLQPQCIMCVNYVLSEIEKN
CRLLIF (head-to-tail cyclic peptide) [cyclo-CRLLIF] showed a Kd of 10.2 µM.
CKLIIF (head-to-tail cyclic peptide) [cyclo-CKLIIF] showed a Kd of 2.2 µM.
With B2 the Kd was 1.7 µM.
CRVIIF (head-to-tail cyclic peptide) [cyclo-CRVIIF] gave a Kd of 123 µM.

Biological target: HIF-2α PAS-B (Homo sapiens, UniProt Q99814)
Experiment: MST
Remark: another data set of the same source
Target sequence in this assay (Q99814 240-350 G323E): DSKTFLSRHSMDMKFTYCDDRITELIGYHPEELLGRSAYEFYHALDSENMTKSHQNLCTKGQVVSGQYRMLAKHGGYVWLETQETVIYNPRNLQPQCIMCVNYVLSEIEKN
B7 was tested, and the Kd was 7.2 µM.
